Columns and labels:
[1] = biological target: Receptor-binding domain of the SARS-CoV-2 spike protein (biotinylated, Acrobio system) (SARS-CoV-2, UniProt P0DTC2 319-541); assay: BLI
[2] = biological target: the molecule itself; assay: homodimerisation; method not stated (FIG. 2)

| Binder | Kd [1] [pM] | Kd [2] [µM] |
| --- | --- | --- |
| CV30 (antibody, V domains shown) VH: EVQLVESGGGLIQPGGSLRLSCAASGVIVSSNYMSWVRQAPGKGLEWVSVIYSGGSTYYADSVKGRFTISRDNSKNTLYLQMNSLRAEDTAVYYCARDLDVSGGMDVWGQGTTVTVSS VL: not shown | ≤ 10 | – |
| homodimeric coiled-coil (HomoCC) (designed binder) DEEQRKVVEEDLKVLEHLRRVVERKEHLVRDAYEETFDDQQREVVREKLKVLEHLEKVIERDRHLSSRPGL | – | 7.6 |

From patent US20240132625A1 (KOREA ADVANCED INSTITUTE OF SCIENCE AND TECHNOLOGY, published 2024)
